{"source": "paper PMC6778039", "binders": {"B1": {"name": "^35S-IRF3, Q14653 1-427 (natural protein)", "chain": "MGTPKPRILPWLVSQLDLGQLEGVAWVNKSRTRFRIPWKHGLRQDAQQEDFGIFQAWAEATGAYVPGRDKPDLPTWKRNFRSALNRKEGLRLAEDRSKDPHDPHKIYEFVNSGVGDFSQPDTSPDTNGGGSTSDTQEDILDELLGNMVLAPLPDPGPPSLAVAPEPCPQPLRSPSLDNPTPFPNLGPSENPLKRLLVPGEEWEFEVTAFYRGRQVFQQTISCPEGLRLVGSEVGDRTLPGWPVTLPDPGMSLTDRGVMSYVRHVLSCLGGGLALWRAGQWLWAQRLGHCHTYWAVSEELLPNSGHGPDGEVPKDKEGGVFDLGPFIVDLITFTEGSGRSPRYALWFCVGESWPQDQPWTKRLVMVKVVPTCLRALVEMARVGGASSLENTVDLHISNSHPLSLTSDQYKAYLQDLVEGMDFQGPGES", "modifications": "here or on the partner: 35S label; 35S label"}}, "target": "T1, ^35S-IRF3, Q14653", "T1 chain": "B1 chain", "assay": "native gel or EMSA", "conditions": "remark: other sources report otherwise"}
{"binder": "B1", "values": [{"measurement": "stoichiometry N", "value": 2}]}
